Source: article PMC5733394, “A J-Protein Co-chaperone Recruits BiP to Monomerize IRE1 and Repress the Unfolded Protein Response” (Cell, 2017)
Positions count from the first letter of the chain named. Names may count otherwise.

How the values were obtained:
IRE1^LD-GST = target: T1, IRE1^LD-GST (human, UniProt O75460 19-486); assay: pull-down; GST fusions recovered on glutathione Sepharose 4B from lysates of transfected ΔERdj4 CHO cells (co-transfected with ERdj4, ERdj4^QPD or ERdj6 where indicated); ATP-depleting lysis buffer; endogenous BiP by immunoblot; where indicated beads incubated 5 min with 3 mM ATP; details: partners not purified
T1 construct: IRE1α, human, entire luminal and transmembrane domains, residues 19-486; the cytosolic effector domain is replaced by GST; also called IRE1α luminal and transmembrane domain fused to cytosolic GST; source: ΔERdj4 CHO cells, transfected, in lysate; not shown: GST, C-terminal, kept
T1 sequence (looked up): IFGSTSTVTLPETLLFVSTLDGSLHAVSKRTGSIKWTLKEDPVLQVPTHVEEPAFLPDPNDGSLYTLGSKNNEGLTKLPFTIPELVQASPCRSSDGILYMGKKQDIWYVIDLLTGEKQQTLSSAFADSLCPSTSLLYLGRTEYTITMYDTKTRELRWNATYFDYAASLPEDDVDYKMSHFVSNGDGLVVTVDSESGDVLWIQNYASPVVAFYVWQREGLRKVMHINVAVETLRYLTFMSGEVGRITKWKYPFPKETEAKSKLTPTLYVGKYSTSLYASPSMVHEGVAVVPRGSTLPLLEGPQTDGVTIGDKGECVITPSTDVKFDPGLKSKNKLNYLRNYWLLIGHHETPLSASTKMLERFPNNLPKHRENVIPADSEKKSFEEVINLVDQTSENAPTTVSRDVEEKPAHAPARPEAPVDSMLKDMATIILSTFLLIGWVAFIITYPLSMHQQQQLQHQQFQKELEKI

[1] = target: the molecule itself; assay: cross-linking; spontaneous Q105C-Q105C disulfide of IRE1^(LD Q105C)-GST in transfected ΔERdj4 CHO cells (alone or with ERdj4 or ERdj4^QPD); glutathione Sepharose; non-reducing SDS-PAGE and immunoblot

B1: endogenous BiP (CHO cells) (natural protein)
chain: not shown
notes: BiP, the ER luminal Hsp70, Chinese hamster, endogenous in CHO cells; detected by immunoblot with anti-hamster BiP serum; source: endogenous, CHO cell lysate
IRE1^LD-GST
  fold recovery of BiP with co-transfected WT ERdj4 against ERdj4^QPD: 2.5 fold

B2: IRE1^(LD Q105C)-GST (domain or fragment, human, UniProt O75460 19-486, looked up)
chain: T1 sequence (looked up) with Q87C
modifications: Q105C-Q105C disulfide between two copies in the dimeric species
notes: IRE1α, human, luminal and transmembrane domains as in IRE1^LD-GST (residues 19-486), with Q105C; a modified version of IRE1^LD-GST; source: ΔERdj4 CHO cells, transfected, in lysate; not shown: GST, C-terminal, kept
[1]
  fold decrease of the disulfide-linked dimeric fraction with co-transfected WT ERdj4: 2.5 fold
  stoichiometry N: 2
